Experimental data: patent US20100137420A1 (Johns Hopkins, published 2010)

Biological target: T1, protein A beads (UniProt P38507 37-477)
T1 construct: Used alone as a control in the immunodepletion; also called protein A beads alone
Experiment: CSF incubated with protein A beads alone, SELDI-TOF read-out
Description: 20 μl of rabbit anti-human cystatin C or rabbit anti-fusin antisera (DakoCytomation, Carpinteria, Calif.) was bound to 10 μl of protein A beads equilibrated in PBS, pH 7.4, by rocking at room temperature for 1 hr. 10 μl of equilibrated protein A beads alone were used as another control. Each sample was washed three times with PBS pH=7.4. […] 30 μl of this CSF was added to each of the above sample and rocked for 1 hr at room temperature. 15 μl of the supernatant was applied to CM-10 arrays and analyzed as described above.

B1: full-length cystatin C (13.4 kD peak) in human cerebrospinal fluid (other)
chain: SSPGKPPRLVGGPMDASVEEEGVRRALDFAVGEYNKASNDMYHSRALQVVRARKQIVAGVNYFLDVELGRTTCTKTQPNLDNCPFHDQPHLKRKAFCSFQIYAVPWQGTMTLSKSTCQDA
notes: also called biomarker J
  binding result: no binding

B2: C-terminal cleavage product of cystatin C lacking the last 8 amino acids (12.5 kD peak) in human cerebrospinal fluid (other)
chain: SSPGKPPRLVGGPMDASVEEEGVRRALDFAVGEYNKASNDMYHSRALQVVRARKQIVAGVNYFLDVELGRTTCTKTQPNLDNCPFHDQPHLKRKAFCSFQIYAVPWQGTMTL
notes: Endogenous fragment in CSF of MS/CIS patients; also called biomarker A
  binding result: no binding
